± gives the uncertainty stated by the source.

This series can be described thus: self-splicing fitness, log relative to wild type (ln ratio); higher = more splicing; Tetrahymena group I intron in knt gene, E. coli kanamycin selection, DiMSum; sequences stand for … in CUCUCU…GGAGGGAAAAGUUAUCAGGCAUGCACCUGGUAGCUAGUCUUUAAACCAAUAGAUUGCAUCGGUUUAAAAGGCAAGACCGUCAAAUUGCGGGAAAGGGGUCAACAGCCGUUCAGUACCAAGUCUCAGGGGAAACUUUGAGAUGGCCUUGCAAAGGGUAUGGUAAUAAGCUGACGGACAUGGUCCUAACCACGCAGCCAAGUCCUAAGUCAACAGAUCUUCUGUUGAUAUGGAUGCAGUUCACAGACUAAAUGUCGGUCGGGGAAGAUGUAUUCUUCUCAUAAGAUAUAGUCGGACCUCUCCUUAAUGGGAGCUAGCGGAUGAAGUGAUGCAACACUGGAGCCGCUGGGAACUAAUUUGUAUGCGAAAGUAUAUUGAUUAGUUUUGGAGUACUCGUGGUCG
In outline:
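The eight P1ex-region nucleotides of an intron in the knt kanamycin-resistance gene on pET-22b(+) were all randomised and the library put into E. coli BL21(DE3). Six replicate transformations were grown overnight at 37°C or 30°C on LB agar with or without 25 μg/mL kanamycin, together with 100 μg/mL carbenicillin, 50 μM IPTG and 0.2% rhamnose. Colonies were pooled and amplicon-sequenced on an Illumina HiSeq 2500. Fitness from DiMSum is the error-weighted combination of wild-type-normalised replicate fold changes, kanamycin over none.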

For the sequence CGUAAGCAAUAUUACGACCG, the “self-splicing fitness (ln)” value (30 °C) was -0.867 ± 0.1 and the “self-splicing fitness (ln)” value (37 °C) was -0.46 ± 0.19.
Consider CGUAAGCAAUAUUACGACGC, for which the “self-splicing fitness (ln)” value runs as follows: (30 °C) -1.86 ± 0.3; (37 °C) -2.02 ± 0.28.
Taken in the same sequence, the figures for CGUAAGCAAUAUUACGACUA were -2.29 ± 0.27 and -1.96 ± 0.24.
Taken in the same sequence, the figures for CGUAAGCAAUAUUACGAUCC were -2.82 ± 0.33 and -1.82 ± 0.3.
Taken in the same sequence, the figures for CGUAAGCAAUAUUACGCACG were -1.76 ± 0.14 and -1.06 ± 0.17.
On to CGUAAGCAAUAUUACGCAGG, for which the “self-splicing fitness (ln)” value reads like this: (30 °C) -2.25 ± 0.094; (37 °C) -1.02 ± 0.11.
The corresponding values for CGUAAGCAAUAUUACGCCAG are -2.15 ± 0.15 and -0.931 ± 0.18.
Taken in the same sequence, the figures for CGUAAGCAAUAUUACGCGCA were -1.3 ± 0.16 and -0.345 ± 0.14.
Taken in the same sequence, the figures for CGUAAGCAAUAUUACGCGCU were -2.03 ± 0.14 and -1.52 ± 0.15.
For the sequence CGUAAGCAAUAUUACGCGUC, the “self-splicing fitness (ln)” value was -3.79 ± 0.21 (30 °C) and -2.87 ± 0.19 (37 °C).
The corresponding values for CGUAAGCAAUAUUACGGACA are -0.986 ± 0.099 and -1.18 ± 0.12.
Taken in the same sequence, the figures for CGUAAGCAAUAUUACGGCAC were -3.68 ± 0.29 and -0.595 ± 0.22.
The corresponding values for CGUAAGCAAUAUUACGGCCG are -0.668 ± 0.11 and 0.0976 ± 0.13.
Turning to CGUAAGCAAUAUUACGGCCU, the “self-splicing fitness (ln)” value reads like this: (30 °C) -3.28 ± 0.26; (37 °C) -1.54 ± 0.22.
The corresponding values for CGUAAGCAAUAUUACGGGUA are -2.63 ± 0.15 and -2.48 ± 0.21.
The corresponding values for CGUAAGCAAUAUUACGGUGU are -4.11 ± 0.25 and -3.24 ± 0.21.
Taken in the same sequence, the figures for CGUAAGCAAUAUUACGUACA were -1.59 ± 0.13 and -0.137 ± 0.13.
For CGUAAGCAAUAUUACGUCGA, the “self-splicing fitness (ln)” value (30 °C) is -2.94 ± 0.21 and the “self-splicing fitness (ln)” value (37 °C) was -3.07 ± 0.2.
Taken in the same sequence, the figures for CGUAAGCAAUAUUACGUGCC were -2.64 ± 0.23 and -1.67 ± 0.2.
Consider CGUAAGCAAUAUUACGUGUU, for which the “self-splicing fitness (ln)” value is -2.37 ± 0.1 (30 °C) and -3.63 ± 0.2 (37 °C).
Taken in the same sequence, the figures for CGUAAGCAAUAUUACGUUAU were -4.56 ± 0.26 and -1.45 ± 0.19.
Taken in the same sequence, the figures for CGUAAGCAAUAUUACGUUCG were -0.989 ± 0.056 and -0.453 ± 0.078.
The corresponding values for CGUAAGCAAUAUUACGUUGA are -3.23 ± 0.19 and -2.58 ± 0.18.
For CGUCAGCAAUAUUACGACUA, the “self-splicing fitness (ln)” value is, setting by setting: (30 °C) -0.58 ± 0.13; (37 °C) 0.632 ± 0.18.
The corresponding values for CGUCAGCAAUAUUACGACUC are -0.282 ± 0.11 and 0.339 ± 0.16.
Taken in the same sequence, the figures for CGUCAGCAAUAUUACGCCCG were -1.23 ± 0.17 and -0.0073 ± 0.24.
With CGUCAGCAAUAUUACGCCUC, for the setting “37 °C”, the “self-splicing fitness (ln)” value was -3.1 ± 0.34.
CGUCAGCAAUAUUACGCCUG: the “self-splicing fitness (ln)” value reads like this: (30 °C) -0.469 ± 0.099; (37 °C) 0.582 ± 0.12.
On to CGUCAGCAAUAUUACGCGAC, for which, for the setting “30 °C”, the “self-splicing fitness (ln)” value is -2.57 ± 0.49.
On to CGUCAGCAAUAUUACGCGAU, for which the “self-splicing fitness (ln)” value was -3.23 ± 0.29 (30 °C) and -1.76 ± 0.42 (37 °C).
Taken in the same sequence, the figures for CGUCAGCAAUAUUACGCGUA were -1.93 ± 0.18 and -0.985 ± 0.12.
Taken in the same sequence, the figures for CGUCAGCAAUAUUACGCUGA were -2.3 ± 0.3 and -1.89 ± 0.33.
The corresponding values for CGUCAGCAAUAUUACGGACA are -0.0785 ± 0.094 and 0.394 ± 0.15.
With CGUCAGCAAUAUUACGGAUU, the “self-splicing fitness (ln)” value (30 °C) was -1.35 ± 0.1 and the “self-splicing fitness (ln)” value (37 °C) is -0.245 ± 0.1.
The corresponding values for CGUCAGCAAUAUUACGGUAC are -3.64 ± 0.31 and -1.89 ± 0.27.
The corresponding values for CGUCAGCAAUAUUACGUGCU are -3.04 ± 0.26 and -2.39 ± 0.27.
The corresponding values for CGUCAGCAAUAUUACGUGUA are -3.11 ± 0.099 and -1.66 ± 0.083.
